Test results: patent US12365732 (23ANDME, dated 2025)
Where a chain is given by its changes, count along the chain named. Names and notes keep the numbering of the source. Like-named read-outs stand apart in the source and are kept apart here. One block for each binder: values may come before it.

What was measured:
[1] = biological target: T1, cy-CD96 (soluble, extracellular domain) (cynomolgus monkey, UniProt P40200 22-516 (human entry), biotinylated in Octet and blocking ELISA); test: phage competition ELISA, soluble CD96 vs coated hu-CD96
T1 construct: the assays name only cy-CD96; also called biotinylated cy-CD96
T1 chain: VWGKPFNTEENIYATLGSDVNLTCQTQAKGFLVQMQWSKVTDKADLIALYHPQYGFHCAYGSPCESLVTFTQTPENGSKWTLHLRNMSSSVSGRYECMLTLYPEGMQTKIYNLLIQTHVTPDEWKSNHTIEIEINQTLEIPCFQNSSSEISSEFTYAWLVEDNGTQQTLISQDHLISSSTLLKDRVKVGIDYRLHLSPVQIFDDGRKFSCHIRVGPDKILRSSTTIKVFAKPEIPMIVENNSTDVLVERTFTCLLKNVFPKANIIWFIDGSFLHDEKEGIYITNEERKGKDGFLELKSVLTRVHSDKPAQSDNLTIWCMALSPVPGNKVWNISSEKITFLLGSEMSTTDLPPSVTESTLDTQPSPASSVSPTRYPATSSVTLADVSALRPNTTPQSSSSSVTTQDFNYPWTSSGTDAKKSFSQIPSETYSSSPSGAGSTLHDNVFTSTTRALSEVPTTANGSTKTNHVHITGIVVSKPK
Method: (§1) 192 colonies from most stringent selections (biotinylated 0.1 nM of hu-CD96 or cy-CD96 with 1000× non-biotinylated human or cy-CD96) were grown in 400 µL 2YT with 4 µL helper phage M13KO7 overnight at 37° C. with shaking. After spinning down the pellet, the phage supernatant was diluted 1:1 with 2 nM hu-CD96, 20 nM cy-CD96 and ELISA buffer (0.5% BSA and 0.05% TWEEN®20 in PBS) in total […] and incubated for two hours at room temperature with agitation. The […] of mixture was transferred to hu-CD96 coated plate for 15 min to capture unbound phage. The plate was washed with wash buffer (0.05% TWEEN®20 in PBS), and HRP-conjugated anti-M13 antibody (Sino biological, Cat #11973-MM05-H-50) was added in ELISA buffer for 30 min. […] Enzymatic color development was stopped using TMB stop solution (VWR, Cat #95059-200). Plates were analyzed with a SpectraMax i3X plate reader (Molecular Devices). The % inhibition was calculated by the $OD450$ of wells with hu-CD96/cy-CD96 competitor divided by $OD450$ of wells with buffer alone. The lower % inhibition indicated higher phage $IC50$ against hu-CD96 or cy-CD96.
(§2) Selected top inhibition % phage variants from single spot competition were purified from culture supernatants. The optimal phage concentration was incubated with serially-diluted hu-CD96 or cy-CD96 in ELISA buffer in NUNC F plate for two hours. The […] of the mixture was transferred to hu-CD96 coated wells for 15 min to capture unbound phage. The plate was washed with wash buffer (0.05% TWEEN®20 in PBS), and HRP-conjugated anti-M13 antibody (Sino biological, Cat #11973-MM05-H-50) was added in ELISA buffer for 30 min. The plates were washed and developed as described above. The absorbance at 450 nm was plotted as a function of antigen concentration in solution to determine phage $IC50$.

[2] = biological target: T2, hu-CD96 (soluble, isoform 2 extracellular domain) (human, UniProt P40200 22-516, biotinylated in Octet and blocking ELISA); test: as above
T2 construct: the assays name only hu-CD96; also called hCD96; biotinylated hu-CD96
T2 sequence: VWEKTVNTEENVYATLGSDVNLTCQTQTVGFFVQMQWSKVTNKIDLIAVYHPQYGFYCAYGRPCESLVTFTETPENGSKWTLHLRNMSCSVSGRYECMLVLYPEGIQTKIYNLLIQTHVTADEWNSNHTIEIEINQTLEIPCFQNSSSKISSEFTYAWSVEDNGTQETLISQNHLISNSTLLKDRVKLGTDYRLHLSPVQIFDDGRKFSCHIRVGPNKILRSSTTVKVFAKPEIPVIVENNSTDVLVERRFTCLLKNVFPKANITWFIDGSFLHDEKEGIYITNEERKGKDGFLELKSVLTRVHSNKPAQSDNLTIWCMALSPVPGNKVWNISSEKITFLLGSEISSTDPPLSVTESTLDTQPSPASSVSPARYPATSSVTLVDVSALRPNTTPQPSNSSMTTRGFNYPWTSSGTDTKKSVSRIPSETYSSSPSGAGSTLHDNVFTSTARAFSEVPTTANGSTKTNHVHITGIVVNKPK
Method: as §1, §2

[3] = biological target: T1, cy-CD96 (soluble, extracellular domain); test: BLI (Octet), biotin-CD96 on SA, Fab analyte
Method: (§3) The binding affinity of the generated Fab variants of mAb1.v7 for hu-CD96 and cy-CD96 was determined by OCTET (Pall ForteBio) Bio-Layer Interferometry (BLI) binding analysis. The biotinylated hu-CD96 or biotinylated cy-CD96 was diluted to a final concentration 10 µg/mL in experimental buffer (PBS buffer with 0.01% Tween-20) and immobilized on the Streptavidin Capture (SA) biosensors (Pall ForteBio). Three-fold serial dilutions of the mAb1.v7 Fab variants starting at 1 µM as analytes were diluted in the experimental buffer (PBS buffer with 0.01% Tween-20). The biosensors were equilibrated in experimental buffer at 30° C. for ten minutes prior to starting the experiment. The kinetics experiment was performed with the following steps, where the step name, solution and time are listed: Baseline (buffer—60 seconds), Loading (biotinylated antigen—200 seconds), Baseline 2 (buffer—minimum 120 seconds), Association (analyte—200-300 seconds) and Dissociation (buffer—1000 seconds). The resulting BLI signal from analyte association and dissociation from the […] was analyzed using the Octet Data Analysis software (Pall ForteBio). First a reference subtraction was performed on all recorded traces using the reference well (biosensor that underwent same steps as experimental wells but no analyte for the Association step) and then all the traces were aligned to the beginning of the Association step. The entirety of the Association and Dissociation steps were used in a Global fit (minimum of four analyte concentration traces) in a 1:1 binding model to calculate the K_D values for the 16 selected individual mAb1.v7 Fab variants as summarized in Table 9 (below).

[4] = biological target: T2, hu-CD96 (soluble, isoform 2 …); test: BLI (Octet), biotin-CD96 on SA, Fab analyte
Method: as §3

[5] = biological target: T1, cy-CD96 (soluble, extracellular domain); test: BLI (Octet), biotin-CD96 on SA, Fab analyte
[6] = biological target: T2, hu-CD96 (soluble, isoform 2 …); test: BLI (Octet), biotin-CD96 on SA, Fab analyte; remark: listed apart in the source

IC50 [1]: 0.15 nM
IC50 [2]: 0.16 nM
Kd [3]: 284 nM
Kd [4]: 28.4 nM
B1: mAb1.v7.6 Fab (Fab, V domains shown)
VH: EVQLVQSGAEVKKPGASVKVSCKASGFTFTNRWMHWVRQAPGQGLEWIGMIHVNSGITNINEKFKNRVTMTTDTSTSTAYMELRSLRSEDTAVYYCRSDGLYEGYFDYWGQGTLVTVSS
VL: DIQLTQSPSSLSASVGDRVTITCKASQNVGTAIVWYQQKPGKAPKVLIYSASTRYTGVPSRFSGSGSGTDFTLTISSLQPEDFATYYCQQYSSSPLTFGQGTKVEIK
notes: also called N32R/P52aV/T97L

IC50 [1]: 0.45 nM
IC50 [2]: 0.17 nM
Kd [3]: 104 nM
Kd [4]: 27 nM
B2: mAb1.v7.8 Fab (Fab, V domains shown)
VH: B1 VH with R32N, M34D, V53P, N54L, L101V
VL: B1 VL
notes: also called M34D/N53L/T97V

Kd [5]: 383 nM
Kd [6]: 5.61 nM
B3: mAb1.v7.NGS7 Fab (Fab, V domains shown)
VH: B1 VH with R32N, V53P, L101V
VL: B1 VL
notes: also called T97V

IC50 [1]: 0.24 nM
IC50 [2]: 0.23 nM
Kd [3]: 175 nM
Kd [4]: 156 nM
B4: mAb1.v7.11 Fab (Fab, V domains shown)
VH: B1 VH with R32N, W33F, V53P, I57G, G100E, L101T
VL: B1 VL
notes: Fab with 8xHis tag

IC50 [1]: 0.76 nM
IC50 [2]: 0.19 nM
Kd [3]: 117 nM
Kd [4]: 2.71 nM
B5: mAb1.v7.10 Fab (Fab, V domains shown)
VH: B1 VH with R32N, M34R, V53P, N54L, L101V
VL: B1 VL
notes: also called M34R/N53L/T97V

Kd [5]: 289 nM
Kd [6]: 5.32 nM
B6: mAb1.v7.NGS6 Fab (Fab, V domains shown)
VH: B1 VH with R32N, V53P, L101I
VL: B1 VL
notes: Fab with 8xHis tag; also called T97I

Kd [5]: 85 nM
Kd [6]: 43.6 nM
B7: mAb1.v7.NGS5 Fab (Fab, V domains shown)
VH: B1 VH with R32N, V53P, E62R, L101T
VL: B1 VL
notes: also called E61R

Kd [5]: ~1000 nM
Kd [6]: 0.1 nM
B8: mAb1.v7.NGS3 Fab (Fab, V domains shown)
VH: B1 VH with R32N, V53A, L101T
VL: B1 VL
notes: also called P52aA

Kd [5]: 271 nM
Kd [6]: 49 nM
B9: mAb1.v7.NGS1 Fab (Fab, V domains shown)
VH: B1 VH with R32N, W33F, V53P, L101T
VL: B1 VL
notes: also called W33F

IC50 [1]: 1 nM
IC50 [2]: 0.1 nM
Kd [3]: 530 nM
Kd [4]: ~0.1 nM
B10: mAb1.v7.14 Fab (Fab, V domains shown)
VH: B1 VH with T30V, R32N, V53P, I60T, L101I
VL: B1 VL
notes: also called T30V/I59T/T97I

IC50 [1]: 0.91 nM
IC50 [2]: 0.15 nM
Kd [3]: 118 nM
Kd [4]: 0.31 nM
B11: mAb1.v7.21 Fab (Fab, V domains shown)
VH: B1 VH with R32Y, V53P, I60M, L101V
VL: B1 VL
notes: also called N32Y/I59M/T97V

Kd [5]: 739 nM
Kd [6]: 31.5 nM
B12: mAb1.v7.NGS4 Fab (Fab, V domains shown)
VH: B1 VH with R32N, V53P, E62H, L101T
VL: B1 VL
notes: also called E61H

IC50 [1]: 0.84 nM
IC50 [2]: 0.23 nM
Kd [3]: 261 nM
Kd [4]: 0.63 nM
B13: mAb1.v7.19 Fab (Fab, V domains shown)
VH: B1 VH with R32S, V53P, I60R, L101I
VL: B1 VL
notes: also called N32S/I59R/T97I

IC50 [1]: 0.6 nM
IC50 [2]: 0.2 nM
Kd [3]: 118 nM
Kd [4]: 0.31 nM
B14: mAb1.v7.24 Fab (Fab, V domains shown)
VH: B1 VH with R32N, M34G, V53R, L101I
VL: B1 VL
notes: also called M34G/P52aR/T97

IC50 [1]: 0.9 nM
IC50 [2]: 0.1 nM
Kd [3]: 183 nM
Kd [4]: 4.16 nM
B15: mAb1.v7.50 Fab (Fab, V domains shown)
VH: B1 VH with R32N, M34S, V53R, L101V
VL: B1 VL
notes: also called M34S/P52aR/T97V

Kd [5]: ~100 nM
Kd [6]: 63 nM
B16: mAb1.v7.NGS2 Fab (Fab, V domains shown)
VH: B1 VH with R32N, M50F, V53P, L101T
VL: B1 VL
notes: also called M50F

IC50 [1]: 1.6 nM
IC50 [2]: 0.1 nM
Kd [3]: 271 nM
Kd [4]: ~0.1 nM
B17: mAb1.v7.59 Fab (Fab, V domains shown)
VH: B1 VH with R32N, M34N, V53P, N59A, S98L, L101T
VL: B1 VL
notes: also called M34N//N58A/S94L

IC50 [1]: 1.85 nM
IC50 [2]: 0.19 nM
Kd [3]: 160 nM
Kd [4]: 3 nM
B18: mAb1.v7.15 Fab (Fab, V domains shown)
VH: B1 VH with R32N, M34D, V53P, N54M, L101F
VL: B1 VL
notes: also called M34D/N53M/T97F
